Laboratory results: PMC10914487, “Interaction of human dendritic cell receptor DEC205/CD205 with keratins” (The Journal of Biological Chemistry, 2024)

B1: CysR∼CTLD3-Fc of DEC205 [human] / K10-T10 (residue G481-G490), SUMO fusion [human] (parent complex)
chain 1: SGRAANDPFTIVHGNTGKCIKPVYGWIVADDCDETEDKLWKWVSQHRLFHLHSQKCLGLDITKSVNELRMFSCDSSAMLWWKCEHHSLYGAARYRLALKDGHGTAISNASDVWKKGGSEESLCDQPYHEIYTRDGNSYGRPCEFPFLIDGTWHHDCILDEDHSGPWCATTLNYEYDRKWGICLKPENGCEDNWEKNEQFGSCYQFNTQTALSWKEAYVSCQNQGADLLSINSAAELTYLKEKEGIAKIFWIGLNQLYSARGWEWSDHKPLNFLNWDPDRPSAPTIGGSSCARMDAESGLWQSFSCEAQLPYVCRKPLNNTVELTDVWTYSDTRCDAGWLPNNGFCYLLVNESNSWDKAHAKCKAFSSDLISIHSLADVEVVVTKLHNEDIKEEVWIGLKNINIPTLFQWSDGTEVTLTYWDENEPNVPYNKTPNCVSYLGELGQWKVQSCEEKLKYVCKRKGEKLNDASSDKMCPPDEGWKRHGETCYKIYEDEVPFGTNCNLTITSRFEQEYLNDLMKKYDKSLRKYFWTGLRDVDSCGEYNWATVGGRRRAVTFSNWNFLEPASPGGCVAMSTGKSVGKWEVKDCRSFKALSICKKMS
chain 2: GSSGGGHGGG

Variants of: B1
Experiment: ELISA; pH 6.0; protein conc 5 µg/ml (highest point of the titration); parent: 3.9; read off a plot

| response | Variant |
| --- | --- |
| ~1.9 OD 450 | chain 2 GSSGGGRGGG [chain 2 H7R] |
| ~2.1 OD 450 | chain 2 GSRGGGHGGG [chain 2 S3R] |
